# Measurements as given in article PMC6821365.
# Positions count from the first letter of the chain named.
# T1: yedK N75A (Escherichia coli (gene from BL21 …, UniProt P76318 2-222, N75A))
# T1 sequence: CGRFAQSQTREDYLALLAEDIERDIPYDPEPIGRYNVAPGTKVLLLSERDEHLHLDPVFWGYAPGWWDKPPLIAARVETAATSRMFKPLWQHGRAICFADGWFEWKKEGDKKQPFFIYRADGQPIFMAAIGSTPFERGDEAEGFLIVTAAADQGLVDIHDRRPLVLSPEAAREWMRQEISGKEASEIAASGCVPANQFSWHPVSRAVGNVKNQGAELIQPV
# T2: yedK WT (Escherichia coli (gene from BL21 …, UniProt P76318 2-222))
# T2 sequence: T1 sequence with A74N
# Legend:
# yedK N75A = target: T1, yedK N75A; test: ITC
# yedK WT = target: T2, yedK WT; test: ITC
binder,measurement,setting,value
CGGTCGATTC (ssDNA) [ssDNA],Kd,yedK N75A,37.9 µM
same,Kd,yedK WT,2.2 µM
